Laboratory results as given in PMC10843684 (Molecular cell, 2023).

T1: RMND5A (RING subunit of the CTLH E3 catalytic module) (human, UniProt Q9H871 1-391)
T1 sequence: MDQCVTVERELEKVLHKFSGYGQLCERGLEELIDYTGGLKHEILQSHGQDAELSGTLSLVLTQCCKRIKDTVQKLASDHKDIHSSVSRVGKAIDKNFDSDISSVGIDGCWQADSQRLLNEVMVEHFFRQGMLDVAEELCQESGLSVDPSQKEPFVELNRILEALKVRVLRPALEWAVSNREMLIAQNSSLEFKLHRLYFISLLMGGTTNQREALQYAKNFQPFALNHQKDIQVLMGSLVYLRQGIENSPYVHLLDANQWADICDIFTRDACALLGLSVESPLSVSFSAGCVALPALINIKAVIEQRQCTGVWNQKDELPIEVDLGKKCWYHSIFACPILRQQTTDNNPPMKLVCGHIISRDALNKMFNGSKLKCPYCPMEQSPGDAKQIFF

T2: MAEA (U-box subunit of the CTLH E3 catalytic module) (human, UniProt Q7L5Y9 1-396)
T2 sequence: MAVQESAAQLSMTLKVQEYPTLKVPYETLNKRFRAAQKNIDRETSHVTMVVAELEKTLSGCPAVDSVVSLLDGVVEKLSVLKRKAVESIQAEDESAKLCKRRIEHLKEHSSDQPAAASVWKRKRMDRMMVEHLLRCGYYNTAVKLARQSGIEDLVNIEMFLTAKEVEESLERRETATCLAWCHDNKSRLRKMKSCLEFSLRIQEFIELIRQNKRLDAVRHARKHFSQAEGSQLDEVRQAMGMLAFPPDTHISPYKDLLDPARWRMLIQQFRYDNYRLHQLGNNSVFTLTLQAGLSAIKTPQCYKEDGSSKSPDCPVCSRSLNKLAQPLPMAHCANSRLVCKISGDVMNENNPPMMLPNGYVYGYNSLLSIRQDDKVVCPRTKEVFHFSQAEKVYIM


Columns and labels:
Experiment in all cases: cryo-EM structure
[1] = biological target: Chelator-GID^SR4 (S. cerevisiae, UniProt P53076 1-958; P40208 1-455; P40547 1-921; P38263 1-362; Q12508 1-421; P40492 …)
[2] = biological target: T1, RMND5A (RING subunit of the CTLH E3 …)
[3] = biological target: T2, MAEA (U-box subunit of the CTLH E3 …)

binding result [2] | binding result [3] | Binder | binding result [1]
 |  | Fbp1-6xHis (fructose-1,6-bisphosphatase) (natural protein, S. cerevisiae) MPTLVNGPRRDSTEGFDTDIITLPRFIIEHQKQFKNATGDFTLVLNALQFAFKFVSHTIRRAELVNLVGLAGASNFTGDQQKKLDVLGDEIFINAMRASGIIKVLVSEEQEDLIVFPTNTGSYAVCCDPIDGSSNLDAGVSVGTIASIFRLLPDSSGTINDVLRCGKEMVAACYAMYGSSTHLVLTLGDGVDGFTLDTNLGEFILTHPNLRIPPQKAIYSINEGNTLYWNETIRTFIEKVKQPQADNNNKPFSARYVGSMVADVHRTFLYGGLFAYPCDKKSPNGKLRLLYEAFPMAFLMEQAGGKAVNDRGERILDLVPSHIHDKSSIWLGSSGEIDKFLDHIGKSQ | binds
binds | binds | UBE2H C87K, insect cell-expressed and fully phosphorylated with CK2 (the E2 chain of the UBE2H~ubiquitin mimic) (enzyme, human, UniProt P62256 1-183, looked up, phosphoserines 164, 165, 166, 168, 169, 171 and 174; K87 isopeptide-bonded to ubiquitin) MSSPSPGKRRMDTDVVKLIESKHEVTILGGLNEFVVKFYGPQGTPYEGGVWKVRVDLPDKYPFKSPSIGFMNKIFHPNIDEASGTVKLDVINQTWTALYDLTNIFESFLPQLLAYPNPIDPLNGDAAAMYLHRPEEYKQKIKEYIQKYATEEALKEQEEGTGDSSSESSMSDFSEDEAQDMEL | 
